# Assay results from PMC13043812.
# B1: unnamed (parent)
# chain 1: MVTHELLVKAAGAVLTGLVGVSAYETLRKALGTAPIRRASVTVMEWGLRGTRRAEAAAESARLTVADVVAEARGRIGEEAPLPAGARVDE
# chain 2: MTTVVDAEVQLTVVSDAAGRMRVQATGFQFDAGRAVAIEDTVGKVAGVQAVHAYPRTASIVIWYSRAICDTAAILSAIIDAETVPA
# Variants of: B1
# Conditions: with partner chain of the complex shown; in M. smegmatis; parent: 100; read off a plot
row,Variant,response
1,chain 1 E71A,8.5 % GFP+ cells
2,chain 1 E59A E71A,0.015 % GFP+ cells
3,chain 1 E59A,0.31 % GFP+ cells
